Target: T1, Human α2Macroglobulin, P01023
T1 chain: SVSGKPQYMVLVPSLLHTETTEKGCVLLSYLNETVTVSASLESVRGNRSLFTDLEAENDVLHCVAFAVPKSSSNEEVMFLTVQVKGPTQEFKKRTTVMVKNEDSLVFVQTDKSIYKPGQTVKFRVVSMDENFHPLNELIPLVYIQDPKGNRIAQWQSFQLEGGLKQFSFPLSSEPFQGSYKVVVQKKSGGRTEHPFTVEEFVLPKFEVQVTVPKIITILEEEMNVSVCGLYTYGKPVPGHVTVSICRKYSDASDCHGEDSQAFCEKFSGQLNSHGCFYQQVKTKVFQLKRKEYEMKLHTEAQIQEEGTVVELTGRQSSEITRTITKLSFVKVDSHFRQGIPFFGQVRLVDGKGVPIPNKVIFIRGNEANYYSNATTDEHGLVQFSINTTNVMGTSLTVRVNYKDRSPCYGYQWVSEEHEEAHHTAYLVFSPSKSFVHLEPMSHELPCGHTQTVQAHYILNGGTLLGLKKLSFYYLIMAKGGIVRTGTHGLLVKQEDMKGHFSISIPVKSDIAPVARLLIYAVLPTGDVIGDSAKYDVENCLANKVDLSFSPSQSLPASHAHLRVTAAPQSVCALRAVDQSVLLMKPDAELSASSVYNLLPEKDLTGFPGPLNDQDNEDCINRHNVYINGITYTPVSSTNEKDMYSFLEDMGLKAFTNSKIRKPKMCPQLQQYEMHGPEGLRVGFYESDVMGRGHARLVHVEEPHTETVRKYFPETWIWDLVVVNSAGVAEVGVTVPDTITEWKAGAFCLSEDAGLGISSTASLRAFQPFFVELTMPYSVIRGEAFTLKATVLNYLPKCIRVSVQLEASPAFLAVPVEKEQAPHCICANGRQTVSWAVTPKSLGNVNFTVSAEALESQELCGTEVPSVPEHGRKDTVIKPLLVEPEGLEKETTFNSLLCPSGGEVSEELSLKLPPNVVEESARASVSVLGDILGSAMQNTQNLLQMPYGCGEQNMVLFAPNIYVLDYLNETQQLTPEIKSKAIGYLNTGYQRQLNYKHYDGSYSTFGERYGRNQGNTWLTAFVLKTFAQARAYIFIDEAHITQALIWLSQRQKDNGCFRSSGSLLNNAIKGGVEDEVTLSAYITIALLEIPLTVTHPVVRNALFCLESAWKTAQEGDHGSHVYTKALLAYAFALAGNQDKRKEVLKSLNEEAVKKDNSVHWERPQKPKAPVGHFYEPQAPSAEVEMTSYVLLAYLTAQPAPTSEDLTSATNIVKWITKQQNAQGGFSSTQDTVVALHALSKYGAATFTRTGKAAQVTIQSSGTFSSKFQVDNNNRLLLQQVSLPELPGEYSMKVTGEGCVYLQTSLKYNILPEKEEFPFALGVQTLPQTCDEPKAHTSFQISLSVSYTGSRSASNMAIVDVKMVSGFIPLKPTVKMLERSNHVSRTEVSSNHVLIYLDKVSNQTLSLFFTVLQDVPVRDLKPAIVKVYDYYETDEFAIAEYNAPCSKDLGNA

B1: HipHum 35 construct no.2 (recombinant HH35 protein, catalytic domain only, with a six histidine tag at the amino terminal) (protein)
chain: HHHHHHRRSPRAPLSLSRRGWQPRGYPDGGAAQAFSKRTLSWRLLGEALSSQLSVADQRRIVALAFRMWSEVTPLDFREDLAAPGAAVDIKLGFGRGRHLGCPRAFDGSGQEFAHAWRLGDIHFDDDEHFTPPTSDTGISLLKVAVHEIGHVLGLPHTYRTGSIMQPNYIPQEPAFELDWSDRKAIQKLY
- α2Macroglobulin trapping (protein gel), evidence for protease activity: αmacroglobulin capture by Hiphum 35, demonstrating that Hiphum 35 has protease activity

Source: patent US20020076800
